Data published in US20240043859A1, “HERBICIDE-RESISTANT PROTEIN, AND GENE AND USE THEREOF” (QINGDAO KINGAGROOT CHEMICAL COMPOUND CO., LTD., priority 2020, published 2024).

B1: QYD66: AAD-like candidate enzyme; 100.00% identical to US20140194292-0002 (protein)
chain: MERHAMSNGKQIVRIEPLPGKTFGAVVTGVRLSELDEDTFSLLYREWLQYALLIFPAQYLTDSQQRDAASKFGCLVEGLEAVEISNLLPTGEVRAAPDDDMMKIIRGNMQWHQDNTYMPLQAKGALFSAKRVPSSGGETGFADMRAAWDALDTETQDRLANLSAYHSLAQSQKNLGEDVKSSDSEYIGYGLDVSTVPRRSLLKIHPETDRKTLAVGRHAFGVTGMAEQESTQFVSDLIDFAVADESRTYHHIWSEGDAILWDNRCLMHRACPWNFSQPRVMLHSRIAGDPSTEAALNS
modifications: Synthetic polypeptide, QYD66, D66
B2: QYD67: AAD-like candidate enzyme; 100.00% identical to US20180244732-0002 (protein)
chain: MSPAFDIAPLDATFGAVVTGVHLATLDDAGFAALHAAWLQHALLIFPGQHLSNDQQITFAKRFGAIERIGGGDIVAISNVKADGTVRQHSPAEWDDMMKVIVGNMAWHADSTYMPVMAQGAVFSAEVVPAVGGRTCFADMRAAYDALDEATRALVHQRSARHSLVYSQSKLGHVQQAGSAYIGYGMDTTATPLRPLVKVHPETGRPSLLIGRHAHAIPGMDAAESERFLEGLVDWACQAPRVHAHQWAAGDVVVWDNRCLLHRAEPWDFKLPRVMWHSRIAGDPASETALAH
modifications: Synthetic polypeptide, QYD67, D67
B3: QYD68: AAD-like candidate enzyme; 100.00% identical to JP2018506305-0002 (protein)
chain: MSPAFDIAPLDATFGAVVTGVKLADLDDAGWLDLQAAWLQHALLIFPGQHLSNDQQITFAKRFGAIERIGGGDIVAISNVKADGTVRQHSPAEWDDMMKVIVGNMAWHADSTYMPVMAQGAVFSAEVVPAVGGRTCFADMRAAYDALDEATRALVHQRSARHSLVYSQSKLGHVQQAGSAYIGYGMDTTATPLRPLVKVHPETGRPSLLIGRHAHAIPGMDAAESERFLEGLVDWACQAPRVHAHQWAAGDVVVWDNRCLLHRAEPWDFKLPRVMWHSRLAGRPETEGAALV
modifications: Synthetic polypeptide, QYD68, D68
B4: QYD69: AAD-like candidate enzyme; 100.00% identical to US20170211087-0004 (protein)
chain: MAQTTLQITPTGATLGATVTGVHLATLDDAGFAALHAAWLQHALLIFPGQHLSNDQQITFAKRFGAIERIGGGDIVAISNVKADGTVRQHSPAEWDDMMKVIVGNMAWHADSTYMPVMAQGAVFSAEVVPAVGGRTCFADMRAAYDALDEATRALVHQRSARHSLVYSQSKLGHVQQAGSAYIGYGMDTTATPLRPLVKVHPETGRPSLLIGRHAHAIPGMDAAESERFLEGLVDWACQAPRVHAHQWAAGDVVVWDNRCLLHRAEPWDFKLPRVMWHSRLAGRPETEGAALV
modifications: Synthetic polypeptide, QYD69, D69
B5: QYD70: AAD-like candidate enzyme; 100.00% identical to US20190017066-0048 (protein)
chain: MHAALTPLTNKYRHIDVQPLTGVLGAEITGVDLREPLDDSTWNEILDAFHTYQVIYFPGQAITNEQHIAFSRRFGPVDPVPILKSIEGYPEVQMIRREANESSRYIGDDWHADSTFLDAPPAAVVMRAIEVPEYGGDTGFLSMYSAWETLSPTMQATIEGLNVVHSATKVFGSLYQATNWRFSGTSVKVMDVDAGDRETVHPLVVTHPVTGRRALYCNQVYCQKIQGMTDAESKSLLQFLYEHATQFDFTCRVRWKKDQVLVWDNLCTMHRAVPDYAGKFRYLTRTTVAGDKPSR
modifications: Synthetic polypeptide, QYD70, D70

Test: Chromogenic reaction of degrading herbicides in bacteria: 2,4-D
Type: cell-based, Escherichia coli
Details: recombinant E. coli expressing the gene, 2,4-D added to the medium; red = phenols
Procedure: To transform the plasmids to be tested, an AAD12-expressing plasmid and a blank control plasmid pET15b were respectively transformed into the protein expression E. coli BL21(DE3) strains. A monoclone was selected and inoculated in a 10 ml centrifuge tube with 3 ml LB medium, and cultivated at 37° C., 200 rpm for 6-8 hours. The culture medium was added with 0.1 mM IPTG and 2 mM α-ketoglutaric acid, and then 0.5 mM 2,4-D. The temperature was switched to 28° C. and the cultivation continued overnight. In the next morning, 200 μL of each bacteria solution was taken and centrifuged to precipitate thallus, 180 μL of the supernatant was taken and added in a 96-well plate, and 20 μL of borate buffer of pH 10 was added. Then the mixture was added with 2 μL of 8% potassium ferricyanide and mixed well, followed by adding 2 μL of 2% 4-aminoantipyrine, and placed at room temperature for 5 min to observe the color and detect the A510 value.
The bacteria solution also appeared red when 2,4-D was directly added into the medium of AAD12-expressing bacteria, as shown in FIG. 1.
2,4-D was added into these bacteria solutions of AAD gene-expressing recombinant E. coli and cultivation was continued for color development.

Molecule	Chromogenic reaction of degrading herbicides in bacteria: 2,4-D
B1	Yes
B2	Yes
B3	Yes
B4	Yes
B5	Yes
